The values below come from paper doi:10.1101/2020.10.21.348805 (bioRxiv, 2020).

In the experiment the target is T1, GST-OsDMI3 (rice (Oryza sativa), UniProt Q6AVM3 1-516).
T1 sequence (looked up): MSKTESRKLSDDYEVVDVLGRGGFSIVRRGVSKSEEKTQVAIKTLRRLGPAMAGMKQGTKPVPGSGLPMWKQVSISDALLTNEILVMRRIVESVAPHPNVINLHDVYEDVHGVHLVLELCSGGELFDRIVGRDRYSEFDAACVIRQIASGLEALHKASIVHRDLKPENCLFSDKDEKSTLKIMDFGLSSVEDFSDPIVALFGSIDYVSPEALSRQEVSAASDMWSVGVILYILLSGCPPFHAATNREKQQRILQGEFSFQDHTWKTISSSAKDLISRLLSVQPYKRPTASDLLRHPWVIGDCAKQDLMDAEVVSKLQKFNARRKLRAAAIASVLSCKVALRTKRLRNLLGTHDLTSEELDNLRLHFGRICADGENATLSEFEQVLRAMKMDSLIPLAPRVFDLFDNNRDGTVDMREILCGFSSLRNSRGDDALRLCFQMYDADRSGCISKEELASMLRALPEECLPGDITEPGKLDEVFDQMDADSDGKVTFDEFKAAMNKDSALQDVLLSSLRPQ
The experiment is described as follows: pull-down.

B1: His-OsMKK6 (enzyme, rice (Oryza sativa), UniProt Q5QN75 1-355, looked up)
chain: MRGKKPHKELKLSVPAQETPVDKFLTASGTFKDGELRLNQRGLQLISEETADEPQSTNLKVEDVQLSMDDLEMIQVIGKGSGGIVQLVRHKWVGTLYALKGIQMNIQEAVRKQIVQELKINQATQNAHIVLCHQSFYHNGVIYLVLEYMDRGSLADIIKQVKTILEPYLAVLCKQVLEGLLYLHHERHVIHRDIKPSNLLVNRKGEVKITDFGVSAVLASSMGQRDTFVGTYNYMAPERISGSSYDYKSDIWSLGLVILECAIGRFPYIPSEGEGWLSFYELLEAIVDQPPPSAPADQFSPEFCAFISSCIQKDPAERMSASELLNHPFIKKFEDKDLDLRILVESLEPPMNISE
Consider B1, for which the binding result is reported as “binds”.
